Reference: patent publication US20240299584A1, “NON-CODING RNA PROTECTING AGAINST HEART FAILURE” (MEDIZINISCHE HOCHSCHULE HANNOVER, priority 2019, published 2024)

What was measured:
apoptotic cardiomyocytes = assay: TUNEL and cardiac troponin T co-staining of heart sections; format: in vivo, mouse; settings: transversal heart sections, doxorubicin model; circINSR given as AAV9
Method: (§1) In addition to apoptosis, doxorubicin is known to cause cardiomyocyte atrophy^12 (G). Thus, histopathology analyses were performed on transversal heart section.
Cells were fixed with 4% paraformaldehyde for twenty minutes at room temperature and then permeabilized with ice-cold 0.1% Triton-X-100 in PBS for two minutes at room temperature. Next cells were incubated with enzyme labelling solution provided with In Situ cell death detection kit (Roche) for 1 hour at 37° C. For negative staining, enzyme was not added to the labelling solution. Cells were then washed and incubated with Dapi for 15 minutes. To specifically label neonatal rat cardiomyocytes and hipsc-CM, cells were co-stained with cardiac Troponin T (Thermofisher) after Tunel staining. Images were taken with Nikon Eclipse Ti microscope and images were analyzed with NIS Elements. For analysis in each case, ten different images were analyzed from different regions and average value was taken. Similarly, cryosections of heart were also processed for staining. Numerous images covering complete heart section was taken and Tunel positive nuclei were counted in each field. Average value for each heart was calculated.

cardiomyocytes = assay: Cardiomyocyte size on wheat germ agglutinin stained heart sections; format: in vivo, mouse; settings: WGA stained heart sections, doxorubicin model; circINSR given as AAV9
Method: as §1
Cryosections of heart were stained with Alexa Fluor 488 labelled wheat germ agglutinin (Invitrogen) and dapi. Images were taken with Nikon Eclipse Ti microscope and images were analyzed with NIS Elements. For each heart 5 to 10 images were randomly taken from different regions of the section and minimum two hundred cells were measured and average value was taken for each heart.

HL-1 cells [1] = assay: Analysis of mitochondrial fission (MitoTracker); format: cell-based, mouse; settings: doxorubicin 0.25 μM 48 h, circ-Insr by overexpression plasmid vs negative control
Method: Based on the results of the foregoing examples, it was reasoned that circ-Insr could interact with SSBP1. To further confirm the interaction between circ-Insr and SSBP1, siRNA mediated circ-Insr knock-down was applied in HL-1 cells. Next, RNA pulldown was performed with circ-Insr and scramble biotinylated probes. RT-qPCR confirmed that decrease of circ-Insr appeared both in input and circ-Insr pulldown group (FIG. 23A). […] Therefore, we assumed that circ-Insr is a cofactor of SSBP1 resulting in the regulation of mitochondrial function in cardiomyocytes by stabilizing mtDNA. […] Furthermore, mito-damage assay was applied to measure the changes in mitochondrial membrane potential (MMP). […]
Mitochondrial fission was analysed by staining mitochondria via MitoTracker® Deep Red FM (Cell Signalling) (Aung L H H, Li R B, Prabhakar B S, Maker A V, Li P F. Mitochondrial protein 18 (MTP18) plays a pro-apoptotic role in chemotherapy-induced gastric cancer cell apoptosis. Oncotarget. 2017; 8:56582-97). […] Mitochondria were imaged using Nikon Eclipse Ti microscope with 60× oils Objective (CFI Plan Apo Lambda 60× Oil) and images were analyzed with NIS Elements. To quantitatively analyse cells with mitochondria fission, those cells with disintegrated mitochondria were considered as fission. The total cell numbers were counted via Hochest 33342. […] More than 150 cells in 10-15 random fields were counted.

HL-1 cells [2] = assay: WST-1 assay (cell viability); format: cell-based, mouse; settings: HL-1 cells treated with doxorubicin 0.25 μM 48 h
Method: HL-1 cells were cultured in Claycomb medium together with 10% FBS, norepinephrine, L-Glutamine and pencillin/streptomycin as manufacturer's protocol. 3T3 and RAW264.7 cells were cultured in DMEM with 10% FBS and pencillin/streptomycin. Neonatal rat cardiomyocytes (NRCM) were isolated from one to three-day old rat babies by using the Neonatal Heart Dissociation Kit (Miltenyi). Human iPSC derived cardiomyocytes (hiPSC-cm) were differentiated at the lab of IMTTS. All the cells were treated with 0.25 μM Doxorubicin (Sigma-Aldrich) for 48 hours. circ-Insr siRNA (Eurofins), in vitro circular RNA and overexpression plasmid were transfected with Lipofectamine 2000 (Life Technologies) in OptiMEM medium. NRCM and hipsc-CM were transduced by AAV6 (MOI: 1*10^4) for 72 hours.
WST-1 assay was performed using Cell Proliferation Reagent WST-1 (Roche) as per the manufacturer instruction. Briefly, HL-1 cells were seeded in 96 well plate and next day treated with 0.25 μM Doxorubicin in normal medium with 10% FBS for forty-eight hours. Next, 10 μL WST1 reagent was added and incubated for 1 hour followed by the absorbance measurement (450 nm) at HT Synergy (Biotek) plate reader.

B1: circINSR: circRNA formed through backsplicing of the second exon of the insulin receptor gene transcript; overexpressed from plasmid or AAV (nucleic acid, listed as Homo sapiens)
chain: UGUGUCCCGGCAUGGAUAUCCGGAACAACCUCACUAGGUUGCAUGAGCUGGAGAAUUGCUCUGUCAUCGAAGGACACUUGCAGAUACUCUUGAUGUUCAAAACGAGGCCCGAAGAUUUCCGAGACCUCAGUUUCCCCAAACUCAUCAUGAUCACUGAUUACUUGCUGCUCUUCCGGGUCUAUGGGCUCGAGAGCCUGAAGGACCUGUUCCCCAACCUCACGGUCAUCCGGGGAUCACGACUGUUCUUUAACUACGCGCUGGUCAUCUUCGAGAUGGUUCACCUCAAGGAACUCGGCCUCUACAACCUGAUGAACAUCACCCGGGGUUCUGUCCGCAUCGAGAAGAACAAUGAGCUCUGUUACUUGGCCACUAUCGACUGGUCCCGUAUCCUGGAUUCCGUGGAGGAUAAUUACAUCGUGUUGAACAAAGAUGACAACGAGGAGUGUGGAGACAUCUGUCCGGGUACCGCGAAGGGCAAGACCAACUGCCCCGCCACCGUCAUCAACGGGCAGUUUGUCGAACGAUGUUGGACUCAUAGUCACUGCCAGAAAG
modifications: circular RNA; RNA sequence
notes: circRNA formed through backsplicing of the second exon of the insulin receptor gene transcript; overexpressed from plasmid or AAV
Apoptotic cardiomyocytes
  apoptotic cardiomyocytes (TUNEL / cTNT): significantly blunted
cardiomyocytes
  cardiomyocyte size: indistinguishable from control mice
HL-1 cells [1]
  percentage of cells undergoing mitochondrial fission: significantly reduce
HL-1 cells [2]
  cell viability (WST-1): enhanced cell viability
HL-1 cells [2]; listed as circ-Insr
  cell viability (WST-1): enhance the cell survival
